Data reported in the DeepSol protein solubility set.

Experiment: soluble on expression in E. coli; label from the status in PepcDB or PDB records

Soluble on expression in E. coli, not soluble:
MALIEYNPPLEPYLDIIYQDNHLCVVNKPSGLLSVPGNQPQYYDSAMSRVKEKFGFCEPAHRLDMATSGIIVFALSKAADRELKRQFREREPKKHYQAIVWGHLENDYGEVNLPMICDWENRPRQRLDFVLGKRAVTKFEVLARLPNNSTRVKLTPVTGRSHQLRLHMLALGHPILGDKFYSHPQAKVMSPRLCLHAEELTITHPITGETMTFNAKSDFLEHHHHHH
MALLVAKAYKIIDRIKDAESRPDRLTNKDAGDVYRLFMGFPAAGVAASWHALTSDQRVGEVSTTGLALLRELFAGPRSPGANMAVAALAGDVPEDRVRQVCRAYVNRLSA
MALNFLSYDDDFCGYCGAILELPAQAPATVSCKVCSTRWAVKERVDQVVSRVEKIYERTVADTDGIENDESADAVVDHICTKCGHSKASYSTMQTRSADEGQTVFYTCLKCKKKDIEYS
MALQGISVMELSGLAPGPFCAMVLADFGARVVRVDRPGSRYDVSRLGRGKRSLVLDLKQPRGAAVLRRLCKRSDVLLEPFRRGVMEKLQLGPEILQRENPRLIYARLSGFGQSGSFCRLAGHDINYLALSGGRNSIFKFFSVENSEIESVGSTSRTEHVGWWSTFLYDLQDSRWGIHGCWSNRTPVLRAADQRTWTKV
MALQLGRLSSGPCWLVARGGCGGPRAWSQCGGGGLRAWSQRSAAGRVCRPPGPAGTEQSRGLGHGSTSRGGPWVGTGLAAALAGLVGLATAAFGHVQRAEMLPKTSGTRATSLGRPEEEEDELAHRCSSFMAPPVTDLGELRRRPGDMKTKMELLILETQAQVCQALAQVDGGANFSVDRWERKEGGGGISCVLQDGCVFEKAGVSISVVHGNLSEEAAKQMRSRGKVLKTKDGKLPFCAMGVSSVIHPKNPHAPTIHFNYRYFEVEEADGNKQWWFGGGCDLTPTYLNQEDAVHFHRTLKEACDQHGPDLYPKFKKWCDDYFFIAHRGERRGIGGIFFDDLDSPSKEEVFRFVQSCARAVVPSYIPLVKKHCDDSFTPQEKLWQQLRRGRYVEFNLLYDRGTKFGLFTPGSRIESILMSLPLTARWEYMHSPSENSKEAEILEVLRHPRDWVR
MALRDSFNKIISYFDTDEVSEVEEPAVASVKRQQDAAQPASQQQKAQSHQYHQSASRPSQQQVQSGQNRRSGEENIHSLPTRRQSHNQQPAQEKTTIALKLPRKYEDAEEIVDLLIRNECVLIDFQYMLEAQARRCLDFIDGASKVLAGNLQKVGASMYLLTPINVIVDAEEMTLAANGQDVSFNYDMKRRLEHHHHHH
MANAFKLFPTRDTNYLEATYVHHDLNVVWLKLSFRVPLETLFLEYRQQGGHTLILSRQVYENILVRDTDFMSVFCNDLQAILEDSPAIERFFVELSPYYWGKEDFDKRMSAWSQSVQLYDWLVTFLDDRQEELKLKLVSLCEFTSLQILSIIRLISSNYLETIKLTFRKNDEQLESNFQEILKTKQWNNAKAAYVKGCCTPIASILHFQKATVQLDILSIDDLRVLKELATKGTLNIFKIRFHSIADSITDNSLIELFGESKHSFLWEWSINGIDNREIECIYSKTYKEFSIFYSEEYQKLGHGVPENNKSEETTLCTSEHSSKVLQNALLMKNILNHLERKDICRLQRTSRKIHESIANLKPDSKIVALEISLVKIECVTVNVFHKMGVKKLIYENVGLSNVDPTAKLITAMERHNQGVFGEEICFAHGRWQLGFSLSAFAVDLIRNLKDQKSEIQELWLDFSLTQARLRERPDKEHIKILVLATRQLLDVISSAGKTLDRQIPVKKLSIQALGHKPLLQILPLLNPVTLKTIEIQKSEVIMAKKPLNLNKVVQLDQWKNAEEVLIKSITAPGQIQHFLHFVVAEVNLESISMGDVLELKNVFQQNSNKLKKFKAFFENSDIDERIYDDQFLGFPYKRPENPSTNLPSVWFVRIPTSTVLHILYYKNRKMISFSRVSNSSVPSDALM
MANPIKIGIGGPVGAGKTQLIEKVVKRLSKEMSIGVITNDIYTKEDEKILVNSGVLPESRIIGVETGGCPHTAIREDASMNFAAIDELLERHDDIELIFIESGGDNLAATFSPELVDFSIYIIDVAQGEKIPRKGGQGMIKSDFFVINKTDLAPYVGASLEQMAEDTKVFRGKRPFTFTNLKTDEGLDEVIDWIERDTLLKGLS
MANSHVNTLNPGDPFRDWLVEEVVANRIRDKKCCVNVFKYNSSHTVCRYQFKGEHFSVMAKFFAEPTGKLKAYNPYKGMMNEYRNLKKAASIINVAKPLAVRKDFNCVLVTEHIPGKSLGWYLKREEDLYGRLSAVAHMLRNLHDNTKSSYNKENEFRNFHDVLDHLKLDYGTRETFNKLLGEWWYSSLLDRDHGCMVHRDVTPSNYIFCKEKPYAIDFESSWFEAHPIRDLGVLTAELKNEFELHKGGGWKAEPYIGNFLWEYSRGEKDFYSITGILPFFMSIGLLRSARLHQGDYRNYLINEARECLGAIYRGNLEHHHHHH
MANVSLNKVDKQALVHQPNLLRECFALLVNAHYQTSPNDLLHLLRDDNSSVYLAMDKQNIIGVILTVEEGGLDDELIEAIQLGQRRPKGHLTPITIINQLGLVKVGKLITSRVMRIAVHPDLQGSGIGKRMLTLLEESVGAHVDYLSTSFGATDELIQFWQQAGYQSIRLGTMRDAASGCYSLLMVRQLANKSQ
MAPLLSLCMIVKNEAHQLRRCLQSVQPWVDEIIIVDTGSTDGTIAIACEFTPHVHAVAWQGDFAAARNAALAQATGEWVFYIDADEELVVTDAHWQDQLTAPGAHAINQWSLLRREQSSDRNWSEFWNVRFGRRFPDLHFAGALHEQLCYREREAVVGELQGVYLIHHNQQSQEQFLAKIRDRNIPILETMVQQGDRRLQNLVCLGDHYAACGDSDRSQAWYEQALEEIASAVEQGILPRETTWLRHLLFWVSYRAFEAKDYETAQYYLSYGLRFFDRYPPLLYVAGLFVFELGLPRGALPYFHRCLDLFEAGSYDRTEPFDRQWMTTQPAYSLGYTYMTLQERDRAIAYFQKTLKFNPDYPPAQMYLEQLLRASANQGLEHHHHHH
MAQHHGHLGAVYDAAGPQEVAALYDRWAETYESEMARAGYRHPAIGVALLARHLPRGARPLLDAGAGTGLLGEWLEIVGYPEVEALDISAGMLEVARAKGIYARCHNLPLGAALPFRDGAFAGIISTGVFTTGHVGAEALPELLRICRPGGVIVLTVKESLWQGGFAVSLEAAVASGLEHHHHHH

Soluble on expression in E. coli, soluble:
MAKWLRDYLSFGGRRPPPQPPTPDYTESDILRAYRAQKNLDFEDPYEDAESRLEPDPAGPGDSKNPGDAKYGSPKHRLIKVEAADMARAKALLGGPGEELEADTEYLDPFDAQPHPAPPDDGYMEPYDAQWVMSELPGRGVQLYDTPYEEQDPETADGPPSGQKPRQSRMPQEDERPADEYDQPWEWKKDHISRAFAVQFDSPEWERTPGSAKELRRPPPRSPQPAERVDPALPLEKQPWFHGPLNRADAESLLSLCKEGSYLVRLSETNPQDCSLSLRSSQGFLHLKFARTRENQVVLGQHSGPFPSVPELVLHYSSRPLPVQGAEHLALLYPVVTQTP
MALDVKKYPFIKSLDDELKKYGGGITLTDLLLNSTTLIDQAKDRIQKTKSGDELPHYVSYNEPVLVFYTTLLSLAILNDVKLIRRYAYAEAKQFRSLLHTENEENLLEISKLLDLKINRCDPIKFYLEKKRRIIQKEFCVHFIDYLKYTKDLKEDWKLSGQILHKGYVYLDKNQLIGLIAESIKSKIVEMIRPLNLKEIPEKLKSLIERRGI
MALNVIKISRVSLVTNSVEPLVLPLTFFDLLWLKLNPIERVTFYKLTESSRDSFFSSILPKLEQSLSLVLSHFLPLSGHLKWNPQDPKPHIVIFPKDTVSLTVVESEADFSYISSKELRLETELRPLVPELQVSSDSASLLSLQITLFPNQGFSIGTTVHHVVMDGKTASKFHKSWAHICKHGTTPQDFDLPTVLDRTVINVPAGLEQKIFQLSSYISEEKDYARTLTLPPAKEIDNDVVRVTLELTEVDIEKLKERAKNESTRSDLHLSTFVVSYAYVLTCMVKSCGGDANRPVRFMYAADFRNRLDPPVPLTYFGNCVLPIDFNGYKATTFLGKDGYVNGVEILSDSVRGLGSRNIESIWEVYEDGTKNMKLDTQNVTVTGSNQFGIYGSDFGWGRPVKTDVMSLYKNNEFSMSARRDEIGGLEIGISLKKCEMNVFLSLFTSDFDIYK
MAMGQLQHGIDDENATKQTQKYRDAEQSKKTAYDQAVAAAKAILNKQTGSNSDKAAVDRALQQVTSTKDALNGDAKLAEAKAAARQNLGTLNHITNAQRTALEGQINQATTVDGVNTVKTNANTLDGAMNSLQGAINDKDATLRNQNYLDADESKRNAYTQAVTAAEGILNKQTGGNTSKADVDNALNAVTRAKAALNGAENLRNAKTSATNTINGLPNLTQLQKDNLKHQVEQAQNVVGVNGVKDKGNLEHHHHHH
MAMQMQLEANADTSVEEESFGPQPISRLEQCGINANDVKKLEEAGFHTVEAVAYAPKKELINIKGISEAKADKILAEAAKLVPMGFTTATEFHQRRSEIIQITTGSKELDKLLQGGIETGSITEMFGEFRTGKTQICHTLAVTCQLPIDRGGGEGKAMYIDTEGTFRPERLLAVAERYGLSGSDVLDNVAYARAFNTDHQTQLLYQASAMMVESRYALLIVDSATALYRTDYSGRGELSARQMHLARFLRMLLRLADEFGVAVVITNQVVAQVDGAAMFAADPKKPIGGNIIAHASTTRLYLRKGRGETRICKIYDSPCLPEAEAMFAINADGVGDAKD
MANSMATLSRRLYRSLLSNPRISQASMSFCTNNITSPEDSDFDELESPIEPKASDPVSRFSGEERVMEERPLENGLDSGIFKAILVGQVGQLPLQKKLKSGRTVTLFSVGTGGIRNNRRPLINEDPREYASRSAVQWHRVSVYPERLADLVLKNVEPGTVIYLEGNLETKIFTDPVTGLVRRIREVAIRRNGRVVFLGKAGDMQQPSSAELRGVGYY
MAPKDQAADMDYDQTKKMVVDILKTDDGKKAIKELLNDDAMNEALVIDQDAIKGTIEKTLTSKKGEEFWKNIFEDTDFAEGFAKTLQTEHEKVIKKLMKDPDYQKMLMSVMQDPGMDKKYSQLAKSQEFRSYLEEVINETLSSPLYKKQFEDELKKAAKDTAKESELEHHHHHH
MAPRDIRPGAEYGDIIEEAIVTCKVFLIVFSETSQISRWVRSELNIGFSSNKPIIPFRIDPTDLKGSMKLMLNDKHWLNAYPNPEEKFSELAAVILDLLQHPAVDTISPPGFQPASNVASADGSNAGAQGLFGKLLNQLFVKRRVKVTSDHAAEIFLNGERKGKLDAYETGNYSVSEDFYQLEVYSCEYGKKVKCEYSGSFSNSSTVIISVDMATAEKQYLMKAKNITSGQINDLGIIFLDEGKFEDAQECFLKAASMGEAAAAYNLGMMYHFGKGVEIDYDVAREYYEEAVKSDYPLALNNLGSIYYNGHGVRKDIAKSFPYFCRAAERGVESAQFTVATMLFYGQGVAVDKAKAKKWFQKAAAQGCKDSQNYLNSWVDDLEHHHHHH
MAQAFVDATWPQAAKAAQSLGVPAHFLVAQAALETGWGKSQIRNKDGTPSYNLFNIKAGSNWTGKVVEARTVEYENGQRKVRVERFRAYDSYEQAFQDYADLVGNSPRYAKVAGKTDGHAFARALQEGGYATDPSYADKLARVINGNALRQRLMASAASARGLEHHHHHH
MAQEFVNCKIQPGKVVVFIKPTCPYCRRAQEILSQLPIKQGLLEFVDITATNHTNEIQDYLQQLTGARTVPRVFIGKDCIGGCSDLVSLQQSGELLTRLKQIGALQ
